Reference: the supplement of paper PMC9112550, “Optimization of the antimicrobial peptide Bac7 by deep mutational scanning” (BMC Biology, 2022)

The sequences below were run on Escherichia coli TOP10 (assay: shrunken log2 fold change of peptide-encoding DNA abundance (4.5 h post-induction vs induction); higher = less antimicrobial activity (less host growth inhibition)). Conditions: time post-induction: 4.5 h; library: site-saturation at positions 5, 18, 19, 20.
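Further: peptides expressed intracellularly from a pBAD plasmid library in pooled LB shake-flask culture, induced with 0.3% L-arabinose, DNA abundance read by NGS, three biological replicates, DESeq2 with apeglm shrinkage.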

| Sequence | shrunken log2 fold change |
| --- | --- |
| RRIRDRPPRLPRPRPRPKNGPRP | 0.74 |
| RRIRNRPPRLPRPRPRPTHSPRP | -0.232 |
| RRIRYRPPRLPRPRPRPRLNPRP | -0.313 |
| RRIRSRPPRLPRPRPRPCDWPRP | 0.0154 |
| RRIRARPPRLPRPRPRPKHVPRP | 0.0861 |
| RRIRGRPPRLPRPRPRPPDQPRP | 1.14 |
| RRIRPRPPRLPRPRPRPQPKPRP | 0.147 |
| RRIRHRPPRLPRPRPRPFTHPRP | -0.0608 |
| RRIRWRPPRLPRPRPRPYTDPRP | 0.102 |
| RRIRERPPRLPRPRPRPGNFPRP | -0.0564 |
| RRIRERPPRLPRPRPRPPSDPRP | 0.0848 |
| RRIRVRPPRLPRPRPRPAVMPRP | -0.0705 |
| RRIRYRPPRLPRPRPRPNTTPRP | -0.114 |
| RRIRARPPRLPRPRPRPKTRPRP | 0.689 |
| RRIRERPPRLPRPRPRPWGQPRP | 0.115 |
| RRIRPRPPRLPRPRPRPYLYPRP | -0.672 |
| RRIRYRPPRLPRPRPRPTMPPRP | -0.725 |
| RRIRTRPPRLPRPRPRPQADPRP | -0.297 |
| RRIRNRPPRLPRPRPRPDVQPRP | -0.13 |
| RRIRARPPRLPRPRPRPPQKPRP | 1.29 |
| RRIRVRPPRLPRPRPRPIIQPRP | -0.28 |
| RRIRPRPPRLPRPRPRPSAHPRP | -0.167 |
| RRIRDRPPRLPRPRPRPDGVPRP | -0.0199 |
| RRIRIRPPRLPRPRPRPEWCPRP | 0.0249 |
| RRIRTRPPRLPRPRPRPHPCPRP | -0.339 |

| Sequence | shrunken log2 fold change |
| --- | --- |
| RRIRGRPPRLPRPRPRPNKTPRP | -0.0264 |
| RRIRVRPPRLPRPRPRPWIFPRP | -0.389 |
| RRIRPRPPRLPRPRPRPACVPRP | 0.26 |
| RRIRWRPPRLPRPRPRPSAMPRP | 0.252 |
| RRIRYRPPRLPRPRPRPTRFPRP | 0.0879 |
| RRIRSRPPRLPRPRPRPQSCPRP | -0.00487 |
| RRIRPRPPRLPRPRPRPQKLPRP | -0.0225 |
| RRIRGRPPRLPRPRPRPPYFPRP | 0.0555 |
| RRIRNRPPRLPRPRPRPTMEPRP | 0.274 |
| RRIRHRPPRLPRPRPRPICDPRP | -0.174 |
| RRIRTRPPRLPRPRPRPDETPRP | 0.0482 |
| RRIRIRPPRLPRPRPRPYMHPRP | -1.32 |
| RRIRSRPPRLPRPRPRPAAPPRP | 0.66 |
| RRIRMRPPRLPRPRPRPLNFPRP | -0.00433 |
| RRIRRRPPRLPRPRPRPGNTPRP | -0.142 |
| RRIRWRPPRLPRPRPRPKTTPRP | -0.0128 |
| RRIRVRPPRLPRPRPRPGWVPRP | 0.0954 |
| RRIRARPPRLPRPRPRPMFAPRP | 0.52 |
| RRIRERPPRLPRPRPRPWKEPRP | 0.0039 |
| RRIRPRPPRLPRPRPRPAYAPRP | 0.16 |
| RRIRERPPRLPRPRPRPTQSPRP | 0.329 |
| RRIRNRPPRLPRPRPRPTFLPRP | -0.272 |
| RRIRRRPPRLPRPRPRPSWCPRP | -0.154 |
| RRIRNRPPRLPRPRPRPDWIPRP | 0.0186 |
| RRIRPRPPRLPRPRPRPNHNPRP | -0.755 |

| Sequence | shrunken log2 fold change |
| --- | --- |
| RRIRCRPPRLPRPRPRPCEPPRP | -0.221 |
| RRIRVRPPRLPRPRPRPNYQPRP | -0.699 |
| RRIRYRPPRLPRPRPRPANVPRP | -0.00291 |
| RRIRSRPPRLPRPRPRPRCMPRP | -0.0959 |
| RRIRARPPRLPRPRPRPFMEPRP | 0.0746 |
| RRIRGRPPRLPRPRPRPGFIPRP | 0.0369 |
| RRIRYRPPRLPRPRPRPNNTPRP | -1.32 |
| RRIRIRPPRLPRPRPRPSSQPRP | -0.674 |
| RRIRRRPPRLPRPRPRPFHIPRP | -0.0758 |
| RRIRNRPPRLPRPRPRPGTYPRP | -0.0105 |
| RRIRFRPPRLPRPRPRPWACPRP | -0.15 |
| RRIRCRPPRLPRPRPRPTEQPRP | -0.304 |
| RRIRLRPPRLPRPRPRPFKWPRP | 0.00989 |
| RRIRMRPPRLPRPRPRPNSYPRP | -0.0962 |
| RRIRHRPPRLPRPRPRPASDPRP | -0.0278 |
| RRIRKRPPRLPRPRPRPDHTPRP | 0.0503 |
| RRIRIRPPRLPRPRPRPLVYPRP | -0.592 |
| RRIRARPPRLPRPRPRPPMYPRP | -0.147 |
| RRIRPRPPRLPRPRPRPASNPRP | -0.231 |
| RRIRDRPPRLPRPRPRPQYSPRP | -0.028 |
| RRIRLRPPRLPRPRPRPNGLPRP | -0.0171 |
| RRIRVRPPRLPRPRPRPATHPRP | -0.0884 |
| RRIRNRPPRLPRPRPRPECYPRP | -0.329 |
| RRIRRRPPRLPRPRPRPQICPRP | -0.0654 |
| RRIRVRPPRLPRPRPRPTEYPRP | 0.0465 |

| Sequence | shrunken log2 fold change |
| --- | --- |
| RRIRGRPPRLPRPRPRPDFCPRP | 2.03 |
| RRIRHRPPRLPRPRPRPTGIPRP | -0.0208 |
| RRIRNRPPRLPRPRPRPCHNPRP | -0.818 |
| RRIRKRPPRLPRPRPRPTCNPRP | 0.198 |
| RRIRERPPRLPRPRPRPGPWPRP | 0.186 |
| RRIRPRPPRLPRPRPRPVFIPRP | -0.235 |
| RRIRQRPPRLPRPRPRPEEFPRP | -0.0679 |
| RRIRDRPPRLPRPRPRPVRYPRP | 0.152 |
| RRIRTRPPRLPRPRPRPCFIPRP | -1.05 |
| RRIRVRPPRLPRPRPRPDSAPRP | 0.0792 |
| RRIRQRPPRLPRPRPRPMHYPRP | -0.276 |
| RRIRGRPPRLPRPRPRPWSRPRP | -0.188 |
| RRIRSRPPRLPRPRPRPGYNPRP | -0.846 |
| RRIRNRPPRLPRPRPRPLVKPRP | -0.741 |
| RRIRFRPPRLPRPRPRPDIYPRP | -0.0949 |
| RRIRIRPPRLPRPRPRPDGCPRP | -0.229 |
| RRIRWRPPRLPRPRPRPSPTPRP | 0.0554 |
| RRIRSRPPRLPRPRPRPINCPRP | -0.159 |
| RRIRQRPPRLPRPRPRPQYHPRP | -0.609 |
| RRIRMRPPRLPRPRPRPCSTPRP | 0.477 |
| RRIRLRPPRLPRPRPRPWIYPRP | -0.385 |
| RRIRNRPPRLPRPRPRPPGKPRP | 0.484 |
| RRIRNRPPRLPRPRPRPAQHPRP | 0.00182 |
| RRIRIRPPRLPRPRPRPERTPRP | 0.0643 |
| RRIRDRPPRLPRPRPRPSYWPRP | -0.0689 |

| Sequence | shrunken log2 fold change |
| --- | --- |
| RRIRCRPPRLPRPRPRPMDVPRP | -0.00136 |
| RRIRQRPPRLPRPRPRPATSPRP | 0.0218 |
| RRIRCRPPRLPRPRPRPVDAPRP | 0.323 |
| RRIRFRPPRLPRPRPRPFVNPRP | -1.51 |
| RRIRFRPPRLPRPRPRPDIPPRP | -0.634 |
| RRIRTRPPRLPRPRPRPCLLPRP | -0.413 |
| RRIRIRPPRLPRPRPRPVMNPRP | -0.61 |
| RRIRPRPPRLPRPRPRPVDPPRP | 0.0557 |
| RRIRSRPPRLPRPRPRPHPNPRP | -0.239 |
| RRIRDRPPRLPRPRPRPGVLPRP | -0.0992 |
| RRIRTRPPRLPRPRPRPADTPRP | -0.215 |
| RRIRWRPPRLPRPRPRPGCSPRP | 0.551 |
| RRIRNRPPRLPRPRPRPDYIPRP | -0.104 |
| RRIRVRPPRLPRPRPRPCIYPRP | -0.533 |
| RRIRLRPPRLPRPRPRPPDPPRP | 0.584 |
| RRIRKRPPRLPRPRPRPTARPRP | 0.508 |
| RRIRCRPPRLPRPRPRPWDWPRP | 0.313 |
| RRIRIRPPRLPRPRPRPEFFPRP | 0.179 |
| RRIRIRPPRLPRPRPRPFFTPRP | -0.312 |
| RRIRCRPPRLPRPRPRPMMNPRP | -0.278 |
| RRIRIRPPRLPRPRPRPMWDPRP | 0.205 |
| RRIRMRPPRLPRPRPRPMPLPRP | 0.00106 |
| RRIRFRPPRLPRPRPRPEGWPRP | 0.807 |
| RRIRFRPPRLPRPRPRPTWKPRP | 0.32 |
| RRIRHRPPRLPRPRPRPYVEPRP | 0.0369 |

| Sequence | shrunken log2 fold change |
| --- | --- |
| RRIRMRPPRLPRPRPRPFDVPRP | 0.268 |
| RRIRLRPPRLPRPRPRPTAIPRP | -0.17 |
| RRIRIRPPRLPRPRPRPPFDPRP | -0.0876 |
| RRIRPRPPRLPRPRPRPEDRPRP | 0.0448 |
| RRIRVRPPRLPRPRPRPSFAPRP | 0.0593 |
| RRIRQRPPRLPRPRPRPWGLPRP | 0.211 |
| RRIRKRPPRLPRPRPRPCVQPRP | -0.038 |
| RRIRYRPPRLPRPRPRPTYIPRP | -0.58 |
| RRIRVRPPRLPRPRPRPGNWPRP | 0.0971 |
| RRIRKRPPRLPRPRPRPLIAPRP | 0.456 |
| RRIRGRPPRLPRPRPRPAMQPRP | 1.05 |
| RRIRNRPPRLPRPRPRPPIGPRP | 0.106 |
| RRIRCRPPRLPRPRPRPYTNPRP | -1.19 |
| RRIRDRPPRLPRPRPRPAENPRP | 0.224 |
| RRIRKRPPRLPRPRPRPDWNPRP | 0.158 |
| RRIRHRPPRLPRPRPRPKTTPRP | -0.052 |
| RRIRWRPPRLPRPRPRPYLVPRP | -0.195 |
| RRIRFRPPRLPRPRPRPMADPRP | -0.00574 |
| RRIRQRPPRLPRPRPRPMQYPRP | -0.309 |
| RRIRERPPRLPRPRPRPGALPRP | 0.122 |
| RRIRNRPPRLPRPRPRPDCEPRP | 0.0108 |
| RRIRWRPPRLPRPRPRPMCSPRP | 0.197 |
| RRIRRRPPRLPRPRPRPSKNPRP | -0.00571 |
| RRIRARPPRLPRPRPRPDRIPRP | -0.00136 |
| RRIRYRPPRLPRPRPRPGNFPRP | -0.307 |
